In the nanobody polyreactivity screen of Harvey et al. (2022):

Assay: yeast display, Sf9 membrane polyspecificity reagent, FACS + sequencing; frameworks hold sequencing errors
Outline: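 Polyreactivity labels are assigned by the sorting gate from which each nanobody was recovered. The gates were low and high (top ~1%), set on anti-HA fluorescence for expression and streptavidin fluorescence for reagent binding. Before sorting, galactose-induced (36–48 hours) yeast display cells were stained for 1 hour at 4 °C with 10% biotinylated, detergent-solubilized Sf9 membrane reagent.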

Sequence	polyreactivity (PSR sort gate)
QVQLVESGGGLVQAGGSLRLSCAASGSTFYVNAMGWYRQAPGKDRELVAVISTGGSTYYADSVKGRFTISRDNAKNTVYLQMNSLKPEDTAVYYCAKRDLPDRSGTPNVIPFDYWGQGTQVTVSS	low polyreactivity
QVQLVESGGGLVQAGGSLRLSCAASGSTFYVNAMGWYRQAPGKERELVAAISRRGGSTYYADSVKGRFTISRDNAKNTVYLQMNSLKPEDTAVYYCNVVPVWRPYSLINWQKHFGYWGQGTQVTVSS	high polyreactivity
QVQLVESGGGLVQAGGSLRLSCAASGSTFYVNAMGWYRQAPGKERELVAGISYNAGSTYYADSVKGRFTISRDNAKNTVSLQMNSLKPEDTAVYYCAAYPYWRWYGYLGYDYWGQGTQVTVSS	low polyreactivity
QVQLVESGGGLVQAGGSLRLSCAASGSTFYVNAMGWYRQTPGKERELVATIPSGSITDYADSVKGRFTISRDNAKNTVYLQMNSLKPEDTAVYYCAKTYVQEHGVDYWGQGTQVTVSS	low polyreactivity
QVQLVESGGGLVQAGGSLRLSCAASGSTFYVNVMGWYRQAPGKERELVADISNDGSTHYADSVKGRFTISRDTAKNTVYLQMNSLKPEDTAVYYCNAEEIDEASYAYPPLEYDYWGQGTQVTVSS	low polyreactivity
QVQLVESGGGLVQAGGSLRLSCAASGSTFYVYAMGWYRQAPGKERELVAAITVRGGSTYYADSVKGRFTISRDNAKNTVYLQMNSLKPEDTAVYYCAVDVSKPYYEMDYWGQGTQVTVSS	high polyreactivity
QVQLVESGGGLVQAGGSLRLSCAASGSTFYVYDMGWYRQAPGKEREFVAVISWNGGSTYYADSVKGRFTISRDNAKNTVYLQMNSLKPEDTAVYYCATRRSSGRVTYDYWGQGTQVTVSS	low polyreactivity
QVQLVESGGGLVQAGGSLRLSCAASGSTFYVYPMGWYRQAPGKERELVAAITRGGTTYYADSVKGRFTISRDNAKNTVYLQMNSLKPEDTAVYYCAKYLTGAADLVPEYDYWGQGTQVTVSS	low polyreactivity
QVQLVESGGGLVQAGGSLRLSCAASGSTFYWYALGWYRQAPGKERELVASITWIGGSNTYYADSVKGRFTISRDNAKNTVYLQMNSLKPEDTAVYYCAADPGVYGQYLYSPWGYDYWGQGTQVTVSS	high polyreactivity
QVQLVESGGGLVQAGGSLRLSCAASGSTFYWYAMGWYRQAPGKEREFVAAISLGSGSTYYADSVKGRFTISRDNAKNTVYLQMNSLKPEDTAVYYCARRYPYPAYEYGYWGQGTQVTVSS	high polyreactivity
QVQLVESGGGLVQAGGSLRLSCAASGSTFYWYAMGWYRQATGKERELVAVITVRGGSTYYADSVKGRFTISRDNAKYTVYLQMNSLKPEDTAVYYCAAEQTSSLYKYWYDYWGQGTQVTVSS	low polyreactivity
QVQLVESGGGLVQAGGSLRLSCAASGSTFYYNAMGWYRQAPGKERELVAAINRGGITYYADSVKGRFTISRDNAKNTVYLQMNSLKPEDTAVYYCAASRYPRSYVSYYYWGQGTQVTVSS	high polyreactivity
QVQLVESGGGLVQAGGSLRLSCAASGSTFYYNAMGWYRQAPGKERELVAAISGSGGSTYYADSVKGRFTISRDNAKNTVYLQMNSLKPEDTAVDYCAALYGPGREYDYWGQGTQVTVSS	low polyreactivity
QVQLVESGGGLVQAGGSLRLSCAASGSTFYYNAMGWYRQAPGKERELVAAITSSGGRTYYADSVKGRFTISRDNAKNTVYLQMNSLKPEDTAVYYCAKREASSRWPYDYWGQGTQVTVSS	low polyreactivity
QVQLVESGGGLVQAGGSLRLSCAASGSTFYYNAMGWYRQAPGKERELVAAITSSGGRTYYADSVKGRFTISRDNAMNTVYLQMNSLKPEDTAFYYCAKREASSRWPYDYWGQGTQVTVSS	low polyreactivity
QVQLVESGGGLVQAGGSLRLSCAASGSTFYYNAMGWYRQAPGKERELVAVITLNGGRTSYADSVKGRFTISRDNAKITVYLQMNSLKPEDTAVYYCAADRYRGYGYWGQGTQVTVSS	low polyreactivity
QVQLVESGGGLVQAGGSLRLSCAASGSTFYYNAMGWYRQAPGQERELVAAITSGGGTNYADSVKGRFTISRDNAKNTVYLQLNSLKPEDTAVYYCAADIYPLAIGAFRDDYWGQRTQVTVSS	low polyreactivity
QVQLVESGGGLVQAGGSLRLSCAASGSTFYYYAIGWYRQAPGKERELVAALSKSGGSTYYADSVKGRFTISRDNAKNTVYLQMNSLNTEDTAVYYCSARWYRFQGYGRPYRGIGGDYWGQGTQVTVSS	high polyreactivity
QVQLVESGGGLVQAGGSLRLSCAASGSTFYYYALGWYRQAPGKERELVATISWSGDSTYADSVKGRFTISRDNAKNTVYLQMNSLKPEDTAVYYCATSGDWWGFRYDYWGQGTQVTVSS	low polyreactivity
QVQLVESGGGLVQAGGSLRLSCAASGSTFYYYAMGWYRPAPGKERELVAAISSRGGSTFYADSVKGRFTISRDNAKNTVYLQMNSLKPEDTAVYYCNAYRYDRSQYYPYDYWGQGTQVTVSS	high polyreactivity
QVQLVESGGGLVQAGGSLRLSCAASGSTFYYYAMGWYRQAPGKEREFVAAISWGGGSTRYADSVKGRFTISRDNAKNTVYLQMNSLKPEDTAVYYCAARYPHYDYYYWGQGTQVTVSS	high polyreactivity

Sequence	polyreactivity (PSR sort gate)
QVQLVESGGGLVQAGGSLRLSCAASGSTFYYYAMGWYRQAPGKERELVAAIDTSVDSTYYADSVKGRFTISRDNAKNTVYLQMNSLKPEDTAVYYCNARSRTGYTNRMYYWGQGTQVTVSS	high polyreactivity
QVQLVESGGGLVQAGGSLRLSCAASGSTFYYYAMGWYRQAPGKERELVAAISISDNSTYYADSVKGRFTISRDNAKNTVYLQMNSLKPEDTAVYYCAAYGWYAHDDSTYDYWGQGTQVTVSS	low polyreactivity
QVQLVESGGGLVQAGGSLRLSCAASGSTFYYYAMGWYRQAPGKERELVAAISSGGSTYADSVKGRFTISRDNAKNTVYLQMNSLKPEDTAVYWGQGTQVTVSS	low polyreactivity
QVQLVESGGGLVQAGGSLRLSCAASGSTFYYYAMGWYRQAPGKERELVAAITYRGGSTYYADSVKGLFTISRDNAKNTVYLQMNSLKPEDTAVYYCSKVGYKTSSIRYGYWGQGTQVTVSS	high polyreactivity
QVQLVESGGGLVQAGGSLRLSCAASGSTFYYYAMGWYRQAPGKERELVAVISWGGGSTYYADSVKGRFTISRDNAKNTVYLQMNSLKPEDTAVYYCAAVYDEYQTSHEYDYWGQGTQVTVSS	low polyreactivity
QVQLVESGGGLVQAGGSLRLSCAASGSTFYYYTMGWYRQAPGKERELVAAISSSGGSTYYADSVKGRFTISRDNAKNTVYLQMNSLKPEDTAVYYCNAARKGYRVYTLIDRHKYDYWGQGTQVTVSS	high polyreactivity
QVQLVESGGGLVQAGGSLRLSCAASGSTFYYYTMGWYRQAPGKERELVASISGNVGSTSYADSVKGRFTISRDNAKNTVYLQMNSLKPEDTAVYYCNTDWGYYHSPDSDYWGQGTQVTVSS	low polyreactivity
QVQLVESGGGLVQAGGSLRLSCAASGSTFYYYVMGWYRQAPGKERELVAAISSGGHTNYADSVKGRFTISRDNAKNTVYLQMNILKPEDTAVYYCAAKPWRGTLLRYGYWGQGTQVTVSS	high polyreactivity
QVQLVESGGGLVQAGGSLRLSCAASGSTGVNTMGWYRQAPGKERQLVAAIRATGGSTYYADSVKGRFTISRENAKNTVYFQMNSLKPEDTAVYYCNAYRRSYRWYGDLGEYWGQGTQVTVSS	high polyreactivity
QVQLVESGGGLVQAGGSLRLSCAASGSTIAYYAMGWDRQAPGKERELVAVINGITGSTYYADSVKGRFTISRDNEKNTVYLQMNSLKPEDTAVYYCNADYADVTDEGDYWGQGTQVTVSS	low polyreactivity
QVQLVESGGGLVQAGGSLRLSCAASGSTIDIYAMGWYRQAPGKERELVAAISNSGDTYYADSVKGRFTISRDNAKNTVYLQMNSLKPEDTAVYYCAAPAAGDEYDYWGQGTQVTVSS	high polyreactivity
QVQLVESGGGLVQAGGSLRLSCAASGSTIDTNAMGWYRQAPGTDRELVAAITSGGNTYADSVKGRFTISRDNAKNTVYLQMNSLKPEDTAVYYCAAEDVYTGWYDYCGQGTQVTVSS	low polyreactivity
QVQLVESGGGLVQAGGSLRLSCAASGSTIDWYGMGWYRQAPGKERELVAAINFSDGSTYYADSVKGRFTISRDNAKNTVYLQMNSLKPEDTAVYYCAAFTPSYGGRDYWGQGTQVTVSS	low polyreactivity
QVQLVESGGGLVQAGGSLRLSCAASGSTIDYYTMGWYRQEPGKERELVAAISWSGGNTYYADSVKGRFTISRDNAKNTVYLQMNSLKPEDTAVYYCNRVNAYWLRYDYWGQGTQVSVSS	high polyreactivity
QVQLVESGGGLVQAGGSLRLSCAASGSTIEFNAMGWYRPAPGKERELVAAISGSGASTYYADSVKGRFTISRDNAKNTVYLQMNSLTPEVTAVYYCNADSLYYDYQTVDVQALDYWGQATQVTVSS	low polyreactivity
QVQLVESGGGLVQAGGSLRLSCAASGSTIEPNAMGWYRPAPGKERELVAAINYSGGRTYYADSVKGRFTISRDNAKNTVYLQMNSLKPEDTAVYYCAATSIGRYKSRLDYWGQGTQVTVSS	high polyreactivity
QVQLVESGGGLVQAGGSLRLSCAASGSTIGDNAMGWYRQAPGKERELVASITGGGGSTYYADSVKGRFTISRDNAKNTVYLQMNSLKPEDTAVYYCAAVYQSYTYYLPKYWSFYQNDYWGQGTQVTVSS	low polyreactivity
QVQLVESGGGLVQAGGSLRLSCAASGSTIGFYAMGWYRQAPGKERELVAVISSSSSTNYADSVKGRFTISRDNAKNTVYLQMNSLKPKIPAVYYCNAKWTTLFDYWGQGTQVTVSS	high polyreactivity
QVQLVESGGGLVQAGGSLRLSCAASGSTIGLNAMGWYIQEPGKEREFVAAISVSSGNKYYADSVKGRFTISRDNAKNTVYLQMNSLKPEDTAVYYCAARPRSHYIAQYYYWGQGTHVTVSS	low polyreactivity
QVQLVESGGGLVQAGGSLRLSCAASGSTIGPNAMGSYRQAPGKERELVAAIRSNGGRTYYADSVKGRFTISRDNAKNTVYLQMNSLKPEDTAVYYCAAPHYPYDTPYGYWGQGTQVTVSS	low polyreactivity
